Reference: patent US20190352420A1 (Boehringer Ingelheim, published 2019)

T1: cell-bound CD73 (human, UniProt P21589 27-549)
T1 sequence (looked up): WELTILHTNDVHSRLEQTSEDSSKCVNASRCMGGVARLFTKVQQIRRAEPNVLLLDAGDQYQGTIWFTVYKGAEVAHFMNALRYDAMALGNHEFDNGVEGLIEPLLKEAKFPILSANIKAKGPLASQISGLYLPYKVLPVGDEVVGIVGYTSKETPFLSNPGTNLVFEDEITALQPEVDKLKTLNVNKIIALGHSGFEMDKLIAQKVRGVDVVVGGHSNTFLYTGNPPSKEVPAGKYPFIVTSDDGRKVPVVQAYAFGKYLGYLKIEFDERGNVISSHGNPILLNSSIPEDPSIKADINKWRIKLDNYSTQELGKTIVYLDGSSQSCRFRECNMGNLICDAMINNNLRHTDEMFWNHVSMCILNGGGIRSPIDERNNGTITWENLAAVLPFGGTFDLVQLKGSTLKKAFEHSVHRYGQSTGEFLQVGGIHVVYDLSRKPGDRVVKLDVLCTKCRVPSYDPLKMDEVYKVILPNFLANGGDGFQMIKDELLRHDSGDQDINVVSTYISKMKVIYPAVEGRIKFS

T2: human CD73-His (human, UniProt P21589 27-549)
T2 construct: extracellular domain; The SPR analyte is only called 'human CD73-His' (non-covalent dimeric antigen); also called HuCD73 His tagged; HuCD73his20170303
T2 sequence: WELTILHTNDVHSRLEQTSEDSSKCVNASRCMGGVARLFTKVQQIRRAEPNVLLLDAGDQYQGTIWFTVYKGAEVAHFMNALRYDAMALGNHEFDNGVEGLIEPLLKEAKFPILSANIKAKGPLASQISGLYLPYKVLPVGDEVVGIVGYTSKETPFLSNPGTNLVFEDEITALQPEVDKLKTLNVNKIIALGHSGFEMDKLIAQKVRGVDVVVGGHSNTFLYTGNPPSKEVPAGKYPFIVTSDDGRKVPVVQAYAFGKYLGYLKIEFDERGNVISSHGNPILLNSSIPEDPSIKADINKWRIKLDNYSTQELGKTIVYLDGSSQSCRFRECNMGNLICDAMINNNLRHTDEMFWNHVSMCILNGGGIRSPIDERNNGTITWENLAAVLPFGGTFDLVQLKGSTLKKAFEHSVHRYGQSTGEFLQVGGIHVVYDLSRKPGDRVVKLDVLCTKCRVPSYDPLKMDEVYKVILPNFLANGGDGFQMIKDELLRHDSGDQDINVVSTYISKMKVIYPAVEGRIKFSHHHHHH

T3: non-cell-bound CD73 (human, UniProt P21589 27-549, limits assumed)
T3 sequence (looked up): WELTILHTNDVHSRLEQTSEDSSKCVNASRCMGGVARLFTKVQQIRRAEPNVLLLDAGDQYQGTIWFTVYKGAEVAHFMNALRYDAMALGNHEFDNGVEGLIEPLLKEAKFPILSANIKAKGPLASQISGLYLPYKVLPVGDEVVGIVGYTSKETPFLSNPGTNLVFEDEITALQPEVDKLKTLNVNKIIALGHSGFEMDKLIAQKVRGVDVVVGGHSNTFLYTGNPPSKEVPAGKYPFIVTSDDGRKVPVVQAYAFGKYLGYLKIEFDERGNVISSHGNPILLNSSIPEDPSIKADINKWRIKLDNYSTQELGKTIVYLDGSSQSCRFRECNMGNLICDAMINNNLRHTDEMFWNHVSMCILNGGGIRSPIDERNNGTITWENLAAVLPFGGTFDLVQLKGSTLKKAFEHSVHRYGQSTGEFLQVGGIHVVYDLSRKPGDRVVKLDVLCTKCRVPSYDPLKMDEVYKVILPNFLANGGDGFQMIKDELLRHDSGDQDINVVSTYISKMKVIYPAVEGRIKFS

T4: recombinant human CD73 protein (human, UniProt P21589 27-549, limits assumed)
T4 sequence (looked up): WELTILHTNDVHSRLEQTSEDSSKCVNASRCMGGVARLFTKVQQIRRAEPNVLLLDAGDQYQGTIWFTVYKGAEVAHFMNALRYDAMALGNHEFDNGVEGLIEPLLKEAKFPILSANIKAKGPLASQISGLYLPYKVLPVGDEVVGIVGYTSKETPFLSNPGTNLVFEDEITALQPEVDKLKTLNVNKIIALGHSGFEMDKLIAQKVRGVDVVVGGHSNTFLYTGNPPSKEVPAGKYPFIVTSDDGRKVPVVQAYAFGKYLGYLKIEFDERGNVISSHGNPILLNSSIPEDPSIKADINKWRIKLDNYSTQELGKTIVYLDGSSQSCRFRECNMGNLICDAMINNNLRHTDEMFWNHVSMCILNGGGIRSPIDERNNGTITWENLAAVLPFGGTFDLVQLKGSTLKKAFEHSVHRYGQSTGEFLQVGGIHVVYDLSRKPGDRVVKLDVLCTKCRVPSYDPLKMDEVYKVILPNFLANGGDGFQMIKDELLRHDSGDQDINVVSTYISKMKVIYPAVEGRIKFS

T5: mouse CD73 (mouse, UniProt Q61503 29-551, limits assumed)
T5 construct: also called murine CD73
T5 sequence (looked up): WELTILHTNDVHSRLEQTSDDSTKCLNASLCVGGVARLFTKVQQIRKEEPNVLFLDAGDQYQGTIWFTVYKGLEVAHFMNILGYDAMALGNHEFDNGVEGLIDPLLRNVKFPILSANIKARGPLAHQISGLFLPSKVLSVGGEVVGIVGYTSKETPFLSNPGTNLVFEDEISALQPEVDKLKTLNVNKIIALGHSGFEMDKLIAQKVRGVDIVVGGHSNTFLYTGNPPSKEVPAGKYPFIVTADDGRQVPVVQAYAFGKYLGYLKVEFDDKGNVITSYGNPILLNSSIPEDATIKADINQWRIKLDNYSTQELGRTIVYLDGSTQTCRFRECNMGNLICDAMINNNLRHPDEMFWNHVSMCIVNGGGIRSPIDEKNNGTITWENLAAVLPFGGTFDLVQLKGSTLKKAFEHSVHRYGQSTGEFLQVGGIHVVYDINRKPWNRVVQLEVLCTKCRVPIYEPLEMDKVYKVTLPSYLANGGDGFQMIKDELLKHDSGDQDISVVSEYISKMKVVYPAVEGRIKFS


What was measured:
cell-bound CD73 [1] = target: T1, cell-bound CD73; assay: cell-based or functional assay
cell-bound CD73 [2] = target: T1, cell-bound CD73; assay: cell-based or functional assay; remark: listed apart in the source
human CD73-His = target: T2, human CD73-His; assay: SPR (ProteOn XPR36), antibody captured on Protein A/G, dimeric human CD73-His as analyte, avidity format, 1:1 Langmuir fit
Description: For the avidity format, the experiment was performed on a Bio-Rad ProteOn XPR36 instrument. Antibodies were captured via Protein A/G and the non-covalent dimeric antigens were flowed over the captured surface. The running buffer for this experiment and all dilutions were prepared in PBS-T-EDTA. The GLM sensor chip was normalized and pre-conditioned as per the manufacturer's recommendations. The sensor chip was activated with an equal mixture of EDC/s-NHS in the horizontal direction for 300 s at a flow rate of 30 μL/min and immobilized with recombinant Protein A/G (50 μg/ml in 10 mM acetate pH 4.5) in the horizontal direction for 300 s at a flow rate of 30 μL/min resulting in about 5000 RU of Protein A/G on the surface. The sensor chip was deactivated with 1M ethanolamine-HCl in the horizontal direction for 300 s at a flow rate of 30 μL/min. The sensor chip was regenerated with 18 s of 0.85% phosphoric acid at a flow rate of 100 μL/min 2 times horizontally and 2 times vertically.
About 300 RU of antibody was captured on the Protein A/G surface vertically for 60 s at a flow rate of 30 μL/min. The capture surface was stabilized by injecting PBS-T-EDTA for 60 s at a flowrate of 100 μL/min horizontally. The analyte (human CD73-His) was injected horizontally over the captured antibody for 600 s at a flow rate of 30 μL/min with a dissociation of 1200 s. The concentrations of human CD73-His were 0 nM, 3.125 nM, 6.25 nM, 12.5 nM, 25 nM and 50 nM. The surface was regenerated by injecting 0.85% phosphoric acid for 18 s at a flow rate of 100 μL/min one time horizontally and one time vertically.
The interspot (interactions with sensor surface) and blank (PBS-T-EDTA or 0 nM analyte) were subtracted from the raw data.

cell-bound CD73 [3] = target: T1, cell-bound CD73; assay: cell-based or functional assay; remark: listed apart in the source
non-cell-bound CD73 = target: T3, non-cell-bound CD73; assay: cell-based or functional assay
[4] = target: T4, recombinant human CD73 protein; assay: cell-based or functional assay
cell-bound CD73 [5] = target: T1, cell-bound CD73; assay: cell-based or functional assay; remark: listed apart in the source
cell-bound CD73 [6] = target: T1, cell-bound CD73; assay: cell-based or functional assay; remark: listed apart in the source
mouse CD73 = target: T5, mouse CD73; assay: SPR, mouse CD73 compared with human CD73 (reference)

| Binder | % of max. adenosine inhibition, washed Colo-201 cells (cell-bound CD73 [1]) | CD73 surface reduction [%] on Colo201 cells, 24 h, flow cytometry (cell-bound CD73 [2]) | Kd (human CD73-His) | IFNγ release [fold change over control], Donor A, 1 nM antibody (cell-bound CD73 [3]) | IFNγ release [fold change over control], Donor B, 1 nM antibody (cell-bound CD73 [3]) | IFNγ release [fold change over control], Donor C, 1 nM antibody (cell-bound CD73 [3]) | IFNγ release [fold change over control], Donor D, 1 nM antibody (cell-bound CD73 [3]) | IFNγ release [fold change over control], Donor E, 1 nM antibody (cell-bound CD73 [3]) | IFNγ release [fold change over control], Donor F, 1 nM antibody (cell-bound CD73 [3]) | % of max. adenosine inhibition, Colo-201 culture supernatant (non-cell-bound CD73) | IC90 of inhibition of CD73 enzymatic function (luciferase-based assay) [4] | Max. adenosine inhibition [%] in Colo201 cells (cell-bound CD73 [5]) | CD8 T cell proliferation [% of control], Donor A, 1 nM antibody (cell-bound CD73 [6]) | CD8 T cell proliferation [% of control], Donor B, 1 nM antibody (cell-bound CD73 [6]) | CD8 T cell proliferation [% of control], Donor C, 1 nM antibody (cell-bound CD73 [6]) | CD8 T cell proliferation [% of control], Donor D, 1 nM antibody (cell-bound CD73 [6]) | CD8 T cell proliferation [% of control], Donor E, 1 nM antibody (cell-bound CD73 [6]) | CD8 T cell proliferation [% of control], Donor F, 1 nM antibody (cell-bound CD73 [6]) | fold higher binding to human CD73 than to mouse CD73 (mouse CD73) |
| --- | --- | --- | --- | --- | --- | --- | --- | --- | --- | --- | --- | --- | --- | --- | --- | --- | --- | --- | --- |
| B2 (antibody, human IgG1, kappa, L234A L235A, V domains shown, Humanized monoclonal antibody; also called anti-CD73 antibody B2) VH: EVQLVESGGGLVQPGGSLRLSCAASGLTFSSYVMSWVRQAPGKGLEWVSTISSGGVSTYYPDTVKGRFTISRDNSKNTLYLQMNSLRAEDTAVYYCAKRETARATGFAYWGQGTLVTVSA VL: DIQMTQSPSSLSASVGDRVTITCKASQSVSDDVTWYQQKPGKAPKLLIYYASNRYTGVPSRFSGSGSGTDFTFTISSVQPEDIATYYCQQDYSSPWTFGGGTKLEIKR | 70% | 31% | 0.42 nM | 12.6 fold | 8.1 fold | 34.1 fold | 17.7 fold | 11.1 fold | 3.1 fold | 62% | 1.04 nM | 77% | 55.6% | 62.2% | 95.8% | 98.5% | 99.1% | -8.9% |  |
| C2 (antibody, human IgG1, kappa, L234A L235A, V domains shown, Humanized monoclonal antibody; also called anti-CD73 antibody C2) VH: QVQLVQSGAEVKKPGDSVKVSCKASGYTFTTYWMHWVRQAPGQGLEWMGAIYPGLSDTTYSQKFKGKVTMTRDTSTSTVYMKLSSLRSEDTAVYYCARLLDYAMDYWGQGTLVTVSS VL: DIQMTQSPSSLSASVGDRVTITCRASQDIRSYLNWHQQKPGKAPKLLIWYTSRLHSGVPSRFSGSGSGTDYTLTISSLEPEDFATYFCQQGETLPWTFGQGTKLEIKR | 78% | 15% | 0.063 nM | 20.3 fold | 7.8 fold |  |  |  |  | 77% | 0.49 nM | 88% | 103% | 68.5% |  |  |  |  | 138 fold |
| C3 (antibody, human IgG1, kappa, L234A L235A, V domains shown, Humanized monoclonal antibody; also called anti-CD73 antibody C3) VH: QVQLVQSGAEVKKPGDSVKVSCKASGYTFTTYWMHWVRQAPGQGLEWMGAIYPGLSDTTYSQKFKGKVTMTRDTSTSTVYMKLSSLRSEDTAVYYCARLLDYAMDYWGQGTLVTVSS VL: DIQMTQSPSSLSASVGDRVTITCRASQDIRSYLNWHQQKPGKAPKLLIWYTSRLHSGVPSRFSGSGSGTDYTLTISSLQPEDFATYFCQQGETLPWTFGQGTKLEIKR | 81% | 16% | 0.072 nM | 19.9 fold | 7.7 fold | 31.9 fold | 19 fold | 14.2 fold | 6.7 fold | 82% | 0.32 nM | 88% | 103% | 80.2% | 116% | 99.3% | 101% | 91.3% | 117 fold |
| C1 (antibody, human IgG1, kappa, L234A L235A, V domains shown, Humanized monoclonal antibody; also called anti-CD73 antibody C1) VH: QVQLVQSGAEVKKPGDSVKVSCKASGYTFTTYWMHWVRQAPGQGLEWMGAIYPGFSDTTYSQKFKGKVTMTRDTSTSTVYMKLSSLRSEDTAVYYCARLLDYAMDYWGQGTLVTVSS VL: DIQMTQSPSSLSASVGDRVTITCRASQDIRSYLNWHQQKPGKAPKLLIWYTSRLHSGVPSRFSGSGSGTDYTLTISSLEPEDFATYFCQQGETLPWTFGQGTKLEIKR | 79% | 20% | 0.072 nM | 20.9 fold | 12 fold | 51.3 fold | 20.9 fold | 12.8 fold | 6.7 fold | 76% | 0.49 nM | 86% | 104% | 86.7% | 107% | 99.5% | 101% | 84.2% | 96 fold |
